From US20120189666A1, “PHARMACEUTICAL FORMULATIONS CONTAINING MICROPARTICLES OR NANOPARTICLES OF A DELIVERY AGENT” (priority 2004, published 2012)
Several values for one entry are separate records, joined by “and”; a condition that tells them apart may be missing. Equal entries are not always repeated. Where two headings read alike, the source gives them in different places.

Legend:
[1] = for AUC0->∞ / C0: individual animals
Excerpt: (§1) This value was assumed to be constant in the estimates of absolute bioavailability.

[2] = Excerpt: as §1
(§2) The portal bioavailability provides an estimate of drug absorption from oral delivery. […] This value is used to estimate bioavailability relative to subcutaneous.

[3] = Insulin from subcutaneous (SC) administration; settings: insulin dose 0.05 mg/kg
Excerpt: as §1, §2

[4] = Estimates of bioavailability (absolute, portal, relative to subcutaneous); settings: rat model
Excerpt: as §1, §2

[5] = Insulin and 4-CNAB stability in simulated gastric fluid, HPLC; settings: for Insulin % of theoretical: SGF
Method: The SGF was prepared with and without pepsin, a gastric enzyme. SGF pH 1.2 was prepared as per the USP NF 26 guidelines. 2 g sodium chloride and 3.2 g of pepsin were weighed and added to a suitable container, and deionized water was added to reach one liter in volume. If necessary, the pH was adjusted to 1.2 by addition of concentrated HCl or NaOH. A second SGF solution omitting the pepsin was also prepared.
Four 50 ml samples of SGF (two with pepsin and two without) were placed into a jacketed vessel connected to a circulating water bath set at 37° C. The solutions were stirred with magnetic stir bars for ten minutes to allow the solutions to reach 37° C. and reach thermal equilibrium.
The term “% of theoretical” as used herein, means the percent of the concentration (mg/mL) of withdrawn solution at the time-point the sample was taken as compared to the theoretical concentration (mg/mL) of the measuring component for experiment. The standard of deviation for the HPLC analysis is ±5%.

[6] = Stability of insulin in simulated intestinal fluid, HPLC
Method: The SIF solutions were prepared with and without pancreatic enzyme. SIF pH 7.5 was prepared as per the USP NF 26 guidelines. SIF was prepared by addition of 6.8 g monobasic potassium phosphate and 10 g of pancreatin into a suitable vessel, and deionized water was added to reach a total volume of one liter. If necessary, the pH was adjusted to 7.5 by addition of 0.2 N sodium hydroxide. A second SIF solution omitting the pancreatin, an intestinal enzyme, was also prepared.
Four 50 ml samples of SIF (two with pancreatin and two without) were placed into a jacketed vessel connected to a circulating water bath set at 37° C. The solutions were stirred with magnetic stir bars for ten minutes to allow the solutions to reach 37° C. and reach thermal equilibrium.

Insulin: Recombinant human zinc insulin
C0->∞/Dose, Average ([1]; IV, all doses (2.5, 8, 9 μg/kg)): 0.0053 kg/mL
AUC0->∞ ([1]; IV, dose 8 μg/kg): 99.35 ng·min/mL and 99.32 ng·min/mL and 103.4 ng·min/mL
C0 ([1]; IV, dose 8 μg/kg): 50.67 ng/mL and 52.64 ng/mL and 49.63 ng/mL
AUC0->∞, X ± SD ([1]; IV, dose 8 μg/kg, n = 3): 100.7 ± 2.4 ng·min/mL
AUC0->∞/Dose, X ± SD ([1]; IV, dose 8 μg/kg, n = 3): 0.0126 ± 0.0003 kg·min/mL
Vd, X ± SD ([1]; IV, dose 8 μg/kg, n = 3): 0.157 ± 0.005 L/kg
AUC0->∞ ([1]; IV, dose 9 μg/kg): 99.55 ng·min/mL and 75.67 ng·min/mL and 122.89 ng·min/mL
C0 ([1]; IV, dose 9 μg/kg): 46.79 ng/mL and 36.32 ng/mL and 55.30 ng/mL
AUC0->∞, X ± SD ([1]; IV, dose 9 μg/kg, n = 3): 99.4 ± 23.6 ng·min/mL
AUC0->∞/Dose, X ± SD ([1]; IV, dose 9 μg/kg, n = 3): 0.0110 ± 0.0026 kg·min/mL
C0, X ± SD ([1]; IV, dose 9 μg/kg, n = 3): 46.1 ± 9.5 ng/mL
Vd, X ± SD ([1]; IV, dose 9 μg/kg, n = 3): 0.201 ± 0.043 L/kg
kel, X ± SD ([1]; IV, dose 9 μg/kg, n = 3): 0.47 ± 0.02 min⁻¹
AUC0->∞/Dose, X ± SD ([1]; IV, dose […], n = 5): 0.0062 ± 0.0011 kg·min/mL
Vd, X ± SD ([1]; IV, dose […], n = 5): 0.219 ± 0.068 L/kg
average insulin AUC0→∞/Dose ([1]; intravenous dosing): 0.0093 kg·min/mL
FPE (fH) ([2]; individual animals): 0.18
AUC-IP, Average ([2]; portal administration, n = 5): 9.65
maximum absolute bioavailability from oral delivery (100% GI absorption into the portal vein) ([2]; rat model, from intraportal administration): approximately 60%
AUC-JV, Average ([2]; systemic administration, n = 5): 15.53
Tmax ([3]; per study, 0.05 mg/kg): 30 min
Glucose ([3]; time 0, study mean, 0.05 mg/kg): 83 mg/dL and 73 mg/dL and 60 mg/dL and 68 mg/dL and 65 mg/dL and 70 mg/dL
Glucose ([3]; time 15, study mean, 0.05 mg/kg): 66 mg/dL and 42 mg/dL and 40 mg/dL and 45 mg/dL and 59 mg/dL
Glucose ([3]; time 30, study mean, 0.05 mg/kg): 60 mg/dL and 59 mg/dL and 38 mg/dL and 39 mg/dL and 64 mg/dL
Glucose ([3]; time 45, study mean, 0.05 mg/kg): 61 mg/dL and 64 mg/dL and 42 mg/dL and 36 mg/dL and 40 mg/dL and 69 mg/dL
Insulin ([3]; time 180, study mean): 8.30 uU/ml
absolute bioavailability from SC [4]: approximately 56%
insulin degraded ([5]; SGF containing pepsin, first sampling point): 97%
insulin remained ([5]; SGF containing pepsin, first sampling point (0 minutes), 37° C.): 3.0%
time insulin is stable ([5]; SGF without pepsin): ≥ 2 h
Insulin % of theoretical ([5]; insulin with 4-CNAB and enzymes (pepsin), 37° C., 0 minutes): 3.0%
Insulin % of theoretical ([5]; insulin with 4-CNAB and no enzymes, 24 h): 0%
Insulin % of theoretical ([5]; insulin without 4-CNAB and with enzymes (pepsin), 37° C., 0 minutes): 3.0%
Insulin % of theoretical ([5]; insulin without 4-CNAB and without enzymes, 24 h): 0%
stability of insulin ([6]; SIF in presence of the enzyme (pancreatin)): degrades
stability of insulin ([6]; SIF without pancreatin): stable
Insulin % of theoretical ([6]; SIF, insulin with 4-CNAB and enzymes (pancreatin), 6 minutes): 5.4%
